Biological target: CXCL8 (human)

B1: Evasin 3 (EVA3) (natural protein)
chain: DGGLVSTIESRTSGDGADNFDVVSCNKNCTSGQNECPEGCFCGLLGQNKKGHCYKIIGNLSGEPPVVRR
modifications: also: glycosylated
Work on B1 yielded a neutralization of human CXCL8-induced granulocyte migration (Transwell, EC80 dose of CXCL8, EVA3 0.02–100 nM); mean IC50 of four biological replicates of 1.94e-09 M.
